Columns and labels:
[1] = target: c-Src SH2; assay: SH2 binding enrichment of the phosphorylated peptide, bacterial display (enrichment ratio); higher = better substrate or ligand; peptides without Tyr show the background
[2] = target: Grb2 SH2 (UniProt P62993); assay: as above
[3] = target: SHP2-C SH2; assay: as above
[4] = system: c-Abl (mouse); assay: phosphorylation enrichment, bacterial display (enrichment ratio); higher = better substrate or ligand; peptides without Tyr show the background
[5] = target: Jak2 (UniProt O60674); assay: as above
Jak2, sequence (O60674 whole entry, looked up): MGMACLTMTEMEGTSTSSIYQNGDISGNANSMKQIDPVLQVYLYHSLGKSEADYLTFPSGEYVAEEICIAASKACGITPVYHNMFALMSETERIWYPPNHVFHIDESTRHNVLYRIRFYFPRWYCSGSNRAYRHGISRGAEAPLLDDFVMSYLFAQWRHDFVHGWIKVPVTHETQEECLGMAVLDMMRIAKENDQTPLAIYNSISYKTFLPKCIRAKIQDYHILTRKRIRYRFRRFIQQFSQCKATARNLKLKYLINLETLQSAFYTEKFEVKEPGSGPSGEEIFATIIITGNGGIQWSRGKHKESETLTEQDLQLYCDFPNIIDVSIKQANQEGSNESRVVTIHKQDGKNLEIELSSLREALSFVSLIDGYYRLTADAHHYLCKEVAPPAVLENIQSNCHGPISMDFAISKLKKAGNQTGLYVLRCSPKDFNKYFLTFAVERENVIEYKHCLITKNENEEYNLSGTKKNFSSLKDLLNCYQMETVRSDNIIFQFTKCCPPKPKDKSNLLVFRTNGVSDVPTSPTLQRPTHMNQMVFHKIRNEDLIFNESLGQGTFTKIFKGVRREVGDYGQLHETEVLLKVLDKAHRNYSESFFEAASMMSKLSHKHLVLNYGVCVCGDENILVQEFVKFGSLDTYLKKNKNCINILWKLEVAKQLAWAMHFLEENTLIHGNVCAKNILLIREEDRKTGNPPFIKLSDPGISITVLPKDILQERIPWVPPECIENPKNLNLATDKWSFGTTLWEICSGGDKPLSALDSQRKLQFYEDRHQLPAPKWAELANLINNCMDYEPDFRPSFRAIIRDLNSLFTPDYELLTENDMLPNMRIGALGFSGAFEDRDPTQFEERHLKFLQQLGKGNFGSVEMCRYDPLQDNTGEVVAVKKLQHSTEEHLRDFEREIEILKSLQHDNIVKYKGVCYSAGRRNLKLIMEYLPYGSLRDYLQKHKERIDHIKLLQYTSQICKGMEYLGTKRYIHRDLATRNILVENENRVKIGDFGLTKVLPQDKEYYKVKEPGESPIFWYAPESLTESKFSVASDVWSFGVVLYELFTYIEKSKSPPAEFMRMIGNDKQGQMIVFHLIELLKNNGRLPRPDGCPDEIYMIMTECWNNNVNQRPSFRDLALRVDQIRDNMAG

[6] = target: FGFR3 (UniProt P22607); assay: as above
FGFR3, sequence (P22607 whole entry, looked up): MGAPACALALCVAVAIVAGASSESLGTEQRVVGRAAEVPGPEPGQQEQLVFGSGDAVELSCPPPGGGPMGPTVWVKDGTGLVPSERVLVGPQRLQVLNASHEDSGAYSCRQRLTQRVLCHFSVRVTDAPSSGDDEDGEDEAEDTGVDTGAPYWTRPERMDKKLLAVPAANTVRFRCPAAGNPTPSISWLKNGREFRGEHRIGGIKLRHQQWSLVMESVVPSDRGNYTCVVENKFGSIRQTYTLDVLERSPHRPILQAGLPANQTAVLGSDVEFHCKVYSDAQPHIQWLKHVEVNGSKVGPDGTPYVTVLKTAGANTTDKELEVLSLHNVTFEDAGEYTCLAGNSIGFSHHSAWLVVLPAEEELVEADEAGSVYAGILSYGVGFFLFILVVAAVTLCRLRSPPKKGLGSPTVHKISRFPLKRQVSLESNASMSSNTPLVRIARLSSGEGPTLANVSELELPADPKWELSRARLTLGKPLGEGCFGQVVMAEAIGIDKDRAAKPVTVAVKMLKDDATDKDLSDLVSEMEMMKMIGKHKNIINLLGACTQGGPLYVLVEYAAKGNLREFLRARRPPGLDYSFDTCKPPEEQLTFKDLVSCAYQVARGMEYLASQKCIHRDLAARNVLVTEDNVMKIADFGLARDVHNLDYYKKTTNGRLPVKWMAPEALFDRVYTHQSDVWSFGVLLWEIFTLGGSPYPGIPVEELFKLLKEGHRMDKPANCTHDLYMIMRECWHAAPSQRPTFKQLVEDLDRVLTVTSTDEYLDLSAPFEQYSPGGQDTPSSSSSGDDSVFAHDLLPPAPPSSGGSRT

[7] = target: EPHB2 (UniProt P29323); assay: as above
EPHB2, sequence (P29323 whole entry, looked up): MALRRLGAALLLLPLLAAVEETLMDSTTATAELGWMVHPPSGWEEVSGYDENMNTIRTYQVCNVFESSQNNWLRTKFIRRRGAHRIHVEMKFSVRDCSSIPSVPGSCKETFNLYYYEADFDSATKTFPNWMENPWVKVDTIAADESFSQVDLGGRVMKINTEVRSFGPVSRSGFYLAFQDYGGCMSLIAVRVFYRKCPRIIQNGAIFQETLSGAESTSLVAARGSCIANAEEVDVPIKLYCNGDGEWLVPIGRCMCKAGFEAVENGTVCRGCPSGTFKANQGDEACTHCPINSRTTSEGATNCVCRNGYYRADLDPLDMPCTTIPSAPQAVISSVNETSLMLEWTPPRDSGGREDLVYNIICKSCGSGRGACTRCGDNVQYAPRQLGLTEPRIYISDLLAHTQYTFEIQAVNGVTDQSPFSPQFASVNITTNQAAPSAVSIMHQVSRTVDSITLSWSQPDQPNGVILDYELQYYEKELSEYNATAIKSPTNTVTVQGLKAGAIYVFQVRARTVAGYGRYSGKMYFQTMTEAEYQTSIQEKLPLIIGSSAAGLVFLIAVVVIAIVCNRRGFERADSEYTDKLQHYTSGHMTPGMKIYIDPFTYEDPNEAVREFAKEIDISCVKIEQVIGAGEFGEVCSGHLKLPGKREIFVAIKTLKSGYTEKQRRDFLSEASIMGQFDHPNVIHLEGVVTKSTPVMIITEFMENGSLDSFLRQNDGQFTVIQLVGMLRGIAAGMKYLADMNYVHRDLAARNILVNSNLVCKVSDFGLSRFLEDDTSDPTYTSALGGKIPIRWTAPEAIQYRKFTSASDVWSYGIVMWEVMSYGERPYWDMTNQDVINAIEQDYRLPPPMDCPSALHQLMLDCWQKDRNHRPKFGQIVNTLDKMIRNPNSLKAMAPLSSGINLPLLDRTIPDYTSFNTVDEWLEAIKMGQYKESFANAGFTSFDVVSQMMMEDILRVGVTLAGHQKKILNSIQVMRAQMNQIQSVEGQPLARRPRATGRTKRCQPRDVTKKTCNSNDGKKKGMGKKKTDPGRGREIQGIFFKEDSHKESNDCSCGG

[8] = system: c-Src; assay: as above
[9] = target: EPHB1 (UniProt P54762); assay: as above
[10] = target: Fyn (UniProt P06241); assay: as above
[11] = target: FGFR1 (UniProt P11362); assay: as above
[12] = target: Hck (UniProt P08631); assay: as above
Hck, sequence (P08631 whole entry, looked up): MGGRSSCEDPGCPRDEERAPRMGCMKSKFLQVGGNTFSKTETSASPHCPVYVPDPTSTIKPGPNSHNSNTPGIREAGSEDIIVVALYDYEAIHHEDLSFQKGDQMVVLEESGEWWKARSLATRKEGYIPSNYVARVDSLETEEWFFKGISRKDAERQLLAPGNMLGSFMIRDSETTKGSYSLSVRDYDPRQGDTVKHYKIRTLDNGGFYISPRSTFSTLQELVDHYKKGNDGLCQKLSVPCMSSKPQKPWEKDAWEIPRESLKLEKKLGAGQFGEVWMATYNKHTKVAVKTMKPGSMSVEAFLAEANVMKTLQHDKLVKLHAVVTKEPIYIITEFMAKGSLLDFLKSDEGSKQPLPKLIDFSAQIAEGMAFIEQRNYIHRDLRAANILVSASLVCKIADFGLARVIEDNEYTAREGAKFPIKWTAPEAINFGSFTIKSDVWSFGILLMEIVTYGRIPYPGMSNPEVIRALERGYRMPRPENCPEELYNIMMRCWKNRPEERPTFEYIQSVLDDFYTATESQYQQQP

[13] = system: AncSZ; assay: as above
[14] = target: MERTK (UniProt Q12866); assay: as above
MERTK, sequence (Q12866 whole entry, looked up): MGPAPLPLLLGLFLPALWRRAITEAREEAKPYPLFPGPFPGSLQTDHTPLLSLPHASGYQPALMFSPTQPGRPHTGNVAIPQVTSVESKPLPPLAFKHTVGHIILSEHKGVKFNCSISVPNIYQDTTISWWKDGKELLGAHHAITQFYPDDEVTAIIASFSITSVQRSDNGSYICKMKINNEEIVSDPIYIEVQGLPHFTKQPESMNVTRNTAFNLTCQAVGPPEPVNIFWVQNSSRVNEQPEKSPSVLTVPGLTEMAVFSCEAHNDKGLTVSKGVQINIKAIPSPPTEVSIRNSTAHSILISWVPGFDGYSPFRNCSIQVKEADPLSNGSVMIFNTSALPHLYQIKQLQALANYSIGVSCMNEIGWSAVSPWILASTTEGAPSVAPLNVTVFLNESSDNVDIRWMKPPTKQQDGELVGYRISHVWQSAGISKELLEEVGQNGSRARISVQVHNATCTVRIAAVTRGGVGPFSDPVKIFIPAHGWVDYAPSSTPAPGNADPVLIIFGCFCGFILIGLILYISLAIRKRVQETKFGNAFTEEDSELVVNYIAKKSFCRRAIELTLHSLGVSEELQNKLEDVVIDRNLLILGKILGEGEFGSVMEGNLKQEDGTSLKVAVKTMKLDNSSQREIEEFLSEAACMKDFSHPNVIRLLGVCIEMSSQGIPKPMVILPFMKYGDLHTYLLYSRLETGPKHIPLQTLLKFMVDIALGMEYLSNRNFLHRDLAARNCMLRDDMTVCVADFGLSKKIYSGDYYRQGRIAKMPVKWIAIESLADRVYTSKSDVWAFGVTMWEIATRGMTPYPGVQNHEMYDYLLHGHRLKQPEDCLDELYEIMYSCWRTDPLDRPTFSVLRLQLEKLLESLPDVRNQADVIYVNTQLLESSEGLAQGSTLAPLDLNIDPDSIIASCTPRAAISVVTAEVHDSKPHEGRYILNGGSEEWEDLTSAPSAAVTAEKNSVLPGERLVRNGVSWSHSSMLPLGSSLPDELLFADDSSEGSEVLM

[15] = target: Fes (UniProt P07332); assay: as above
[16] = system: Fer (mouse); assay: as above
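For SH2 binding enrichment of the phosphorylated peptide, bacterial display in this document: peptide library displayed on the E. coli surface as eCPX fusions, selected cells deep-sequenced, score is each peptide's frequency after selection divided by its frequency in the input.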
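For phosphorylation enrichment, bacterial display in this document: 11-residue human phosphosite peptides and single-mutation variants displayed on the E. coli surface, counted by deep sequencing, each peptide's frequency after selection divided by its frequency in the unselected input library; frequency after pTyr selection over input frequency; kinase dosed for 20-30% of maximal phosphorylation in three min.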

Grb2 SH2, sequence (P62993 whole entry, looked up): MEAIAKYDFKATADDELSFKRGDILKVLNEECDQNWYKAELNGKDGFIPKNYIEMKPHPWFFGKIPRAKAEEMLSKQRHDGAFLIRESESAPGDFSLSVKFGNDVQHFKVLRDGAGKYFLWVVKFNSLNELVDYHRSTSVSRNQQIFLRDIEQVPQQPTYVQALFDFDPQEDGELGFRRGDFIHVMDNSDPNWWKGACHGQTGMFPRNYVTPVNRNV

| Sequence | SH2 binding enrichment [1] | SH2 binding enrichment [2] | SH2 binding enrichment [3] | phosphorylation enrichment [4] | phosphorylation enrichment [5] | phosphorylation enrichment [6] | phosphorylation enrichment [7] | phosphorylation enrichment [8] | phosphorylation enrichment [9] | phosphorylation enrichment [10] | phosphorylation enrichment [11] | phosphorylation enrichment [12] | phosphorylation enrichment [13] | phosphorylation enrichment [14] | phosphorylation enrichment [15] | phosphorylation enrichment [16] |
| --- | --- | --- | --- | --- | --- | --- | --- | --- | --- | --- | --- | --- | --- | --- | --- | --- |
| QAKRKYQEVSK [FES_Y156_A159V] | 0.616 | 0.957 | 0.448 | 0.326 | 0.227 | 0.37 | 0.443 | 0.193 | 0.231 | 0.365 | 0.424 | 0.373 | 0.463 | 0.311 | 0.257 | 0.233 |
| QDLFLYQTHSE [PKHD1_Y255] | 0.49 | 0.763 | 0.696 | 1.56 | 1.97 | 0.822 | 0.726 | 0.964 | 0.887 | 0.59 | 0.492 | 0.744 | 1.52 | 0.543 | 1.96 | 0.778 |
| QEALEYFMKQI [PIK3CA_Y1038_M1043I] | 0.455 | 0.704 | 0.926 | 1.28 | 1.53 | 0.744 | 0.547 | 0.714 | 0.845 | 0.545 | 0.616 | 0.631 | 1.68 | 0.449 | 1.43 | 0.599 |
| QFNIQYSSSAA [ERBB2IP_Y981_YF] | 0.557 | 0.705 | 0.623 | 1.01 | 0.935 | 0.661 | 0.542 | 0.633 | 0.51 | 0.485 | 0.832 | 0.673 | 1.11 | 0.962 | 1.31 | 0.458 |
| QGFDTYFGYLL [ARSB_Y165_R160Q] | 0.327 | 0.596 | 0.561 | 0.92 | 5.92 | 5.48 | 10.3 | 6.32 | 5.42 | 9.48 | 5.78 | 8.44 | 2.72 | 4.3 | 1.64 | 6.45 |
| QGGRRYMMIVD [GAA_Y438] | 3.68 | 0.965 | 0.776 | 0.543 | 0.568 | 0.367 | 0.508 | 0.403 | 0.487 | 0.655 | 0.413 | 0.354 | 0.606 | 0.42 | 0.574 | 0.692 |
| QGIFGYHHHMQ [UFSP2_Y287_Y290H_YF] | 0.945 | 1.16 | 0.936 | 0.652 | 1.07 | 0.792 | 0.781 | 0.498 | 0.639 | 0.395 | 0.892 | 0.664 | 0.941 | 0.521 | 1.04 | 0.779 |
| QHVPDYRQNVY [PCDHGA1_Y890] | 0.483 | 0.886 | 0.638 | 0.66 | 0.76 | 0.626 | 0.563 | 0.723 | 0.544 | 0.673 | 0.497 | 0.665 | 0.742 | 0.478 | 0.829 | 0.517 |
| QKINKYLTVPA [SLC9A1_Y683_N682K] | 0.607 | 0.958 | 0.813 | 0.462 | 0.588 | 0.854 | 0.67 | 0.762 | 0.282 | 0.461 | 0.659 | 0.356 | 1.77 | 0.52 | 0.625 | 0.567 |
| QKMLDYLKEKK [RYR2_Y3780] | 0.498 | 1.09 | 0.778 | 0.533 | 0.579 | 0.673 | 0.345 | 0.513 | 0.401 | 0.542 | 0.553 | 0.491 | 0.9 | 0.398 | 1.1 | 0.442 |
| QKNVSYVSRVS [TASOR_Y1043_T1046R] | 0.369 | 0.853 | 1.21 | 0.547 | 0.69 | 0.894 | 0.564 | 0.457 | 0.683 | 0.438 | 0.782 | 0.477 | 1.2 | 0.537 | 0.739 | 0.764 |
| QLAPQYTYTQG [FLNA_Y1761_A1764T] | 1.34 | 0.766 | 1.03 | 0.36 | 0.611 | 0.768 | 0.413 | 0.526 | 0.436 | 0.422 | 0.411 | 0.533 | 0.828 | 1.17 | 0.766 | 0.517 |
| QLCVSYPGGYT [PROS1_Y259_N258S] | 0.541 | 0.861 | 0.784 | 0.683 | 0.862 | 0.665 | 0.719 | 0.4 | 0.588 | 0.597 | 0.592 | 0.416 | 1.03 | 0.402 | 0.888 | 0.591 |
| QLFGAYLRIHA [BSCL2_Y213_YF] | 0.972 | 1.28 | 0.952 | 0.744 | 1.37 | 2.28 | 0.915 | 0.559 | 1.17 | 0.784 | 0.928 | 1.02 | 1.49 | 0.599 | 2.12 | 0.837 |
| QMQAAYQKAVA [HBD_Y131_V134A] | 0.42 | 0.893 | 0.76 | 0.451 | 0.635 | 0.508 | 0.292 | 0.307 | 0.583 | 0.47 | 0.652 | 0.449 | 0.576 | 0.368 | 0.798 | 0.405 |
| QMVGKYASSYM [AVPR2_Y124_M123K] | 0.654 | 1.02 | 1.21 | 0.786 | 0.717 | 0.452 | 0.401 | 0.459 | 0.336 | 0.529 | 0.29 | 0.379 | 0.626 | 0.475 | 0.736 | 0.266 |
| QMVRMYASSFM [AVPR2_Y124_G122R_YF] | 0.571 | 0.831 | 0.774 | 0.745 | 0.769 | 0.677 | 0.552 | 0.328 | 0.59 | 0.605 | 0.605 | 0.425 | 1.26 | 0.544 | 0.843 | 0.482 |

| Sequence | SH2 binding enrichment [1] | SH2 binding enrichment [2] | SH2 binding enrichment [3] | phosphorylation enrichment [4] | phosphorylation enrichment [5] | phosphorylation enrichment [6] | phosphorylation enrichment [7] | phosphorylation enrichment [8] | phosphorylation enrichment [9] | phosphorylation enrichment [10] | phosphorylation enrichment [11] | phosphorylation enrichment [12] | phosphorylation enrichment [13] | phosphorylation enrichment [14] | phosphorylation enrichment [15] | phosphorylation enrichment [16] |
| --- | --- | --- | --- | --- | --- | --- | --- | --- | --- | --- | --- | --- | --- | --- | --- | --- |
| QNAGDYYDLYG [PTPN11_Y62_T59A] | 0.687 | 0.897 | 0.625 | 1.04 | 3.1 | 20.3 | 13.6 | 4.65 | 15.5 | 5.41 | 19.5 | 5.32 | 4.8 | 3 | 1.25 | 1.56 |
| QNTADYFDLFG [PTPN11_Y62_G60A_YF] | 0.558 | 0.924 | 0.564 | 1.13 | 6.89 | 16.9 | 13.8 | 0.693 | 15.8 | 1.32 | 17.9 | 0.722 | 5.82 | 0.691 | 1.53 | 0.951 |
| QPGTDYKIYRY [FN1_Y1970_L1974R] | 0.516 | 0.734 | 0.791 | 0.742 | 0.968 | 0.882 | 0.555 | 0.527 | 0.383 | 0.468 | 0.583 | 0.468 | 1.02 | 0.499 | 0.866 | 0.618 |
| QQLDEYQELLD [LMNA_Y359] | 0.452 | 0.798 | 0.55 | 1.01 | 1.3 | 1.18 | 0.757 | 0.726 | 0.776 | 0.669 | 0.615 | 0.684 | 1.63 | 0.6 | 1.57 | 0.598 |
| QRPGLYDRPGA [HNRNPH2_Y210_P209L] | 1.59 | 0.804 | 0.513 | 1.2 | 0.829 | 0.773 | 0.512 | 0.806 | 0.933 | 0.741 | 0.651 | 1.22 | 0.737 | 0.852 | 0.943 | 0.802 |
| QRRFLYFFSFL [PTEN_Y176_V175L_YF] | 0.774 | 1.05 | 0.779 | 1.09 | 1.5 | 1.16 | 0.817 | 0.567 | 0.761 | 0.795 | 0.978 | 0.68 | 1.61 | 0.886 | 1.85 | 0.862 |
| QRTMKYTTATE [MCCC1_Y41_G46E] | 0.521 | 0.768 | 0.635 | 0.496 | 0.975 | 1.11 | 1.43 | 0.706 | 0.791 | 0.781 | 0.683 | 0.966 | 1.43 | 0.862 | 1.23 | 0.607 |
| QSQQAYQEAFE [YWHAZ_Y149] | 1.32 | 0.873 | 0.526 | 1.71 | 1.28 | 0.693 | 0.47 | 0.578 | 0.355 | 0.397 | 0.488 | 0.48 | 1.3 | 0.541 | 1.22 | 0.597 |
| QVMDGYPIPIG [MMP14_Y353_M355I] | 0.5 | 0.826 | 0.587 | 0.46 | 0.554 | 0.572 | 0.755 | 0.3 | 0.596 | 0.592 | 0.406 | 0.566 | 0.686 | 0.482 | 0.715 | 0.56 |
| QYNIQYSSSAA [ERBB2IP_Y981] | 0.59 | 0.978 | 0.679 | 0.408 | 0.68 | 0.648 | 0.583 | 0.749 | 0.335 | 0.702 | 0.693 | 0.47 | 0.913 | 0.452 | 0.964 | 0.606 |
| RAEIVYKSPVV [MAPT_Y711_G706R] | 0.452 | 0.869 | 0.765 | 16.4 | 0.779 | 0.857 | 0.507 | 0.723 | 0.663 | 0.482 | 0.783 | 0.674 | 0.995 | 0.415 | 1.46 | 0.363 |
| RAIGFYSATSK [FAM120A_Y328_YF] | 0.886 | 0.989 | 0.95 | 1.26 | 0.889 | 0.805 | 0.81 | 0.59 | 0.46 | 0.685 | 0.545 | 0.774 | 1.51 | 1.03 | 1.03 | 0.911 |
| RALLNYIASKY [GSTA3_Y74_I71L] | 0.768 | 1.22 | 0.917 | 0.578 | 0.8 | 0.798 | 0.521 | 0.381 | 0.551 | 0.678 | 0.343 | 0.553 | 0.611 | 0.509 | 0.959 | 0.47 |
| RASSSYRETPS [SORBS1_Y79] | 0.491 | 0.876 | 0.844 | 0.757 | 1.49 | 0.68 | 0.337 | 0.775 | 0.361 | 0.655 | 0.611 | 0.502 | 0.681 | 0.644 | 0.659 | 0.513 |
| RDIHDYIKHLG [UNC13C_Y308] | 0.507 | 0.92 | 0.97 | 0.373 | 0.614 | 0.474 | 0.985 | 0.487 | 0.597 | 0.576 | 0.449 | 0.519 | 0.9 | 0.46 | 0.696 | 0.582 |
| RDSQIYAVDYE [MRPS34_Y34_L33I] | 0.485 | 0.824 | 0.691 | 0.684 | 0.977 | 1.37 | 1.94 | 4.24 | 2.44 | 7.43 | 1.21 | 4.23 | 1.86 | 4.3 | 1.56 | 1.89 |
